Reference: the supplement of paper PMC7877785
± gives the uncertainty stated by the source.

Assay: self-splicing fitness, log relative to wild type (ln ratio); higher = more splicing; Tetrahymena group I intron in knt gene, E. coli kanamycin selection, DiMSum; sequences stand for … in CUCUCU…GGAGGGAAAAGUUAUCAGGCAUGCACCUGGUAGCUAGUCUUUAAACCAAUAGAUUGCAUCGGUUUAAAAGGCAAGACCGUCAAAUUGCGGGAAAGGGGUCAACAGCCGUUCAGUACCAAGUCUCAGGGGAAACUUUGAGAUGGCCUUGCAAAGGGUAUGGUAAUAAGCUGACGGACAUGGUCCUAACCACGCAGCCAAGUCCUAAGUCAACAGAUCUUCUGUUGAUAUGGAUGCAGUUCACAGACUAAAUGUCGGUCGGGGAAGAUGUAUUCUUCUCAUAAGAUAUAGUCGGACCUCUCCUUAAUGGGAGCUAGCGGAUGAAGUGAUGCAACACUGGAGCCGCUGGGAACUAAUUUGUAUGCGAAAGUAUAUUGAUUAGUUUUGGAGUACUCGUGGUCG
Outline: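 A randomised library covering all eight P1ex-region intron nucleotides was built with the intron in the knt kanamycin-resistance gene on pET-22b(+) and held in E. coli BL21(DE3). Cells were grown overnight at 37°C or 30°C on LB agar, with or without 25 μg/mL kanamycin, plus 100 μg/mL carbenicillin, 50 μM IPTG and 0.2% rhamnose, and pooled colonies were amplicon-sequenced on an Illumina HiSeq 2500. DiMSum fitness is the error-weighted combination of wild-type-normalised replicate fold changes, kanamycin versus none.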

Sequence	self-splicing fitness (ln) (30 °C)	self-splicing fitness (ln) (37 °C)
AAUAAGCAAUAUUACGUGAA	-2.46 ± 0.16	-0.674 ± 0.13
GGCCAGCAAUAUUACGACUA	-0.921 ± 0.1	-0.322 ± 0.1
UAAAAGCAAUAUUACGCGAG	-0.897 ± 0.075	-0.186 ± 0.095
AGUCAGCAAUAUUACGAGGA	-2.97 ± 0.2	-1.73 ± 0.16
UCGCAGCAAUAUUACGUAGG	-0.74 ± 0.068	-0.377 ± 0.086
UGACAGCAAUAUUACGACCU	-1.09 ± 0.11	0.0765 ± 0.14
GAUAAGCAAUAUUACGAAGC	-2.17 ± 0.28	-0.18 ± 0.21
UCGAAGCAAUAUUACGACAG	-3.08 ± 0.23	-1.87 ± 0.31
CUAGAGCAAUAUUACGCGAG	-0.514 ± 0.11	0.0831 ± 0.13
GCCUAGCAAUAUUACGCCUC	0.149 ± 0.18	0.175 ± 0.41
GCAUAGCAAUAUUACGACAC	0.147 ± 0.14	-0.214 ± 0.19
CAGGAGCAAUAUUACGGAAG	-2.2 ± 0.13	-1.67 ± 0.14
ACUUAGCAAUAUUACGUCCG	-2.09 ± 0.2	-0.774 ± 0.25
GGUCAGCAAUAUUACGUCAG	-3.99 ± 0.4	-3.23 ± 0.47
UAAUAGCAAUAUUACGUAUG	-1.88 ± 0.12	-0.28 ± 0.13
AGCCAGCAAUAUUACGGAGG	-3.01 ± 0.14	-1.8 ± 0.26
UCGGAGCAAUAUUACGGGAU	-3.48 ± 0.25	-2.81 ± 0.38
CCGCAGCAAUAUUACGAUCC	-3.04 ± 0.19	-2.71 ± 0.36
CCUUAGCAAUAUUACGUAAG	-1.28 ± 0.097	-0.938 ± 0.12

Sequence	self-splicing fitness (ln) (30 °C)	self-splicing fitness (ln) (37 °C)
UACGAGCAAUAUUACGGAGC	-2.66 ± 0.3	-2.8 ± 0.32
AUUAAGCAAUAUUACGCAGA	-2.88 ± 0.27	-1.36 ± 0.2
GAAGAGCAAUAUUACGACGG	-2.5 ± 0.37	-2.67 ± 0.48
UGAAAGCAAUAUUACGCAGA	-1.68 ± 0.12	-1.93 ± 0.15
CUGGAGCAAUAUUACGAAGU	-2.22 ± 0.37	-2.38 ± 0.43
UCUCAGCAAUAUUACGAGUC	-3.98 ± 0.18	-2.93 ± 0.18
GUGAAGCAAUAUUACGUUUA	-1.01 ± 0.064	-0.109 ± 0.11
CGUAAGCAAUAUUACGACGG	0.0203 ± 0.061	-0.0967 ± 0.082
CCUAAGCAAUAUUACGGGGC	-2.45 ± 0.2	-2.61 ± 0.22
UGAGAGCAAUAUUACGAUCA	-1.62 ± 0.22	-1.1 ± 0.25
AGUCAGCAAUAUUACGGGGU	-4.54 ± 0.31	-1.5 ± 0.15
UCGUAGCAAUAUUACGGUUG	-2.14 ± 0.12	-1.05 ± 0.15
GAAUAGCAAUAUUACGCCUU	-0.0381 ± 0.072	0.111 ± 0.081
CAUUAGCAAUAUUACGCUUA	-2.22 ± 0.13	-2.16 ± 0.15
UAGGAGCAAUAUUACGCGCC		-1.03 ± 0.37
CUGGAGCAAUAUUACGGGCG	-1.16 ± 0.12	-0.434 ± 0.12
AUCAAGCAAUAUUACGGACG	-0.832 ± 0.083	0.117 ± 0.11
CAUUAGCAAUAUUACGCUUC	-2.28 ± 0.34	
ACGUAGCAAUAUUACGGGGC	-4.11 ± 0.14	-2.73 ± 0.12
